Experimental data: CN109810195A (INST OF HEMATOLOGY BLOOD DISEASES HOSPITAL OF CHINESE …, dated 2019)

Biological target: T1, 人CD123蛋白 (白细胞介素3受体α链, IL3RA) (human, UniProt P26951 19-378)
T1 construct: whole, on cells
Assay: FACS, PE-labelled 13C3 titrated (200nM to 0.003nM) on 3T3 cells transfected with CD123; Kd fitted in GraphPad Prism 5

T1 sequence (P26951 19-378): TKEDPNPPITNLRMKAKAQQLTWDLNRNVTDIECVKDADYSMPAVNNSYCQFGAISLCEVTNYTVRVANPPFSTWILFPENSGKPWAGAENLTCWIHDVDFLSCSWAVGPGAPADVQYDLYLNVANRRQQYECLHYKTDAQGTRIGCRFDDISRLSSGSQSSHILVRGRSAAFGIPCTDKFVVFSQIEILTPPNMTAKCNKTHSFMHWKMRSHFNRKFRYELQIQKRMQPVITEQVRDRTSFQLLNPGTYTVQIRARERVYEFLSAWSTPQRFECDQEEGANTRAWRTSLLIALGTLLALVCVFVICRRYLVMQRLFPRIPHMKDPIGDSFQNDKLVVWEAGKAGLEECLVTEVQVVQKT

Kd: 3.67 nM
B1: 鼠抗人CD123单克隆抗体13C3 (antibody, V domains shown)
VH: QVQLQESGPGILQPSQTLTLTCSFSGFSLSTSGMGVGWIRQPSGKGLEWLAHIWWDDDKRYKPALKSRLTISKDTSSNQVFLKIASVDTADAATYYCARMGGGNYLFLYAMDFWGQGTSVTVSA
VL: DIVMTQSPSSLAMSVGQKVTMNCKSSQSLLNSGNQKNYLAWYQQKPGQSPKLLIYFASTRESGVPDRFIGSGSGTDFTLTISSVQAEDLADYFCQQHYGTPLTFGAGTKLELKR
notes: PE-labelled purified antibody in the Kd assay and on patient samples; also called 抗CD123单克隆抗体13C3; 杂交瘤细胞株13C3 (CGMCC No.16699) 产生的抗体
